# In article PMC11655901, “Mass balance, metabolic disposition, and pharmacokinetics of a single IV dose of [14C]CA102N in HT-29 xenograft athymic nude mice” (Frontiers in Pharmacology, 2024):
# How the values were obtained:
# [1] = PK of the parent molecule H-Nim in mice (LCMS of serum); format: in vivo, female BALB/c athymic (nu+/nu+) mice; details: 4.5 mg/kg IV
# Protocol: Female BALB/c athymic (nu+/nu+) mice (n = 5) were used in the study. Mice were treated with a single bolus injection of H-Nim via the tail vein at 4.5 mg/kg. The blood samples were collected at 5, 10, 30, 60, and 120 min after treatment. Mice were anesthetized and decapitated to obtain the blood samples. Serum supernatant was collected and stored at −80 until analysis.
# PK samples were analyzed by LCMS analysis. The retention time of H-Nim was approximately 25.4 min on the extracted ion chromatogram (XIC) and the protonated molecule of H-Nim was at m/z 279.
# [2] = In vivo metabolite profiling (HPLC-MS with radio flow-through detector) of plasma, urine, feces, liver, tumor; details: for free Nim or H-Nim in the biological samples evaluated: after [14C]CA102N 200 mg/kg IV
# Protocol: Samples were collected on days 0 through 10. […] The weights of all samples (except blood and plasma) were recorded and then stored at −70°C for later analysis.
# Fecal and tissue homogenates were maintained at approximately −70°C for MET-ID analysis. The metabolite profiling in the biological samples from mice dosed with [14C]CA102N was performed by HPLC-tandem mass spectrometry coupled with a radio flow-through detector (RFD). The HPLC-MS/radio flow-through detector (RFD) consisted of a Shimadzu NexeraTM (Shimadzu, disseminated Japan) ultra-high pressure liquid chromatography system with two LC-30AD pumps, a SIL30AC autosampler, and a CTO-30A column oven; A Sciex TripleTOF 6600TM (Sciex, Framingham, MA) mass spectrometer; and a β-RAM Model 3 RFD. The mass spectrometer was controlled by Analyst TF 1.7TM (Sciex, Framingham, MA), and the RFD was controlled by Laura Lite 5TM (LabLogic Systems, Brandon, FL) software. The HPLC eluent was split between the RFD and mass spectrometer with a ratio of 3 to 1.
# [14C]CA102N and its metabolites were separated using reverse-phase and hydrophilic interaction chromatography. Two HPLC methods were used to separate the metabolites and the parent molecule CA102N, using RFD and mass spectrometer simultaneously.
# Retention times of the metabolites were determined from the radio-chromatograms. Mass spectra (MS and MS/MS) of metabolite standards (H-Nim, H-Nim Saccharide, H-Nim Disaccharide) were acquired and major fragment patterns were proposed. […] For other unknown metabolites, molecular ions were searched on LC-MS chromatograms at the same retention times as those found on an HPLC radio-chromatogram. The product/ion spectra were acquired for the corresponding molecular ions. Putative metabolite structures were proposed based on the analysis of their mass fragment patterns.
# [3] = Quantitative Whole-Body Autoradiography (QWBA) tissue distribution of total radioactivity; format: in vivo, female BALB/c athymic (nu+/nu+) HT-29 xenograft mice
# Protocol: Food and water were provided ad libitum.
# Samples were collected on days 0 through 10.
# The pinna, limbs, and tail were removed from each frozen carcass (Group 3) and the remaining carcass was embedded in an aqueous suspension of approximately 1% (w/v) carboxymethylcellulose and frozen into a block. The blocks were stored at approximately −20°C before sectioning. Each blocked carcass was mounted on a microtome stage (Leica CM3600 Cryomacrocut and/or a Vibratome 9800, Leica Corp., Nussloch, Germany) and maintained at approximately −20°C. Sections were collected and allowed to dry by sublimation in the cryomicrotome at −20°C for at least 48 h. A set of sections for each mouse was mounted on a cardboard backing, covered with a thin plastic wrap, and exposed along with calibration standards of [14C]-glucose mixed with blood at 10 different concentrations to a [14C]-sensitive phosphor imaging plate (Fuji Biomedical, Stamford, CT). The imaging plates and sections were placed in light-tight exposure cassettes, for a 4-day (96 h) exposure at room temperature. The imaging plates were scanned using the GE Healthcare Typhoon FLA 9500 image acquisition system (GE/Molecular Dynamics, Sunnyvale, CA, United States). Quantification was performed by image dosimetry using MCID image analysis software (Version 7.0, Interfocus Imaging Ltd., Linton, Cambridge, United Kingdom). A standard curve was constructed from the integrated response (MDC/mm2) and the nominal concentrations of the [14C]-calibration standards. The concentrations of radioactivity were expressed as the µg equivalents of CA102N per gram sample (µg equiv/g).
# The following calculations were used to determine the µg equivalents/mL, or/g and % percent of dose in the tissue: µg equivalents/mL=µCi/mL/Specific Activity DosedµCi/mL µg equivalents/g=DPM of the sample×1/MassTissueg/Specific Activity of the radiolabeled moleculeDPM/g Percent of dose in tissue=µg eq in tissue×100/Specific Activity DosedμCi/μg
# Autoradioluminographic image data were calibrated using response curves that were generated using a weighted, 1st-degree, polynomial, linear equation (1/MDC/mm^2). A numerical estimate of the goodness of fit was given by the relative error, where the absolute value for the relative error of each calibration standard must have been ≤0.250 to be accepted.
# The LLOQ and ULOQ were set using calibration standard concentration values of 0.0003 and 20.973 μCi/g, respectively, which were widely proven values ([Kolbe and Dietzel, 2000]) that were verified during the QWBA system validation ([Solon and Lee, 2002]).
# [4] = mouse, in vivo
# Protocol: Female BALB/c athymic (nu+/nu+) mice (n = 48) were generated by Taconic (Germantown, NY). Mice (18–22 g) were acclimated for at least 3 days before subcutaneous implantation of 1 × 10^7 HT-29 colorectal carcinoma (ATCC number HTB38) cells in 100 μL 50:50 matrigel: PBS. Tumors were allowed to grow to 200–500 mm^3 sizes before initiating the study. Each animal was assigned a permanent identification number, and identified with a tail mark before being placed on the study. Food and water were provided ad libitum. Animal rooms were controlled to maintain a temperature of 68°F–79°F, and 20%–70% relative humidity, with a 12 h light/12 h dark cycle. Observations were recorded for all animals pre-dose and at least once daily post-dose. Mice were randomized into 3 groups and housed (n = 3 per cage) in metabolism cages (Group 1, n = 9) or shoebox cages (Group 2, n = 29 and Group 3, n = 10). Each mouse received a single bolus injection of CA102N via the tail vein. Urine, feces, cage residue, blood/plasma, tissue samples, and carcasses were collected from different groups for Mass Balance (MB), Metabolite Identification (MET-ID), Pharmacokinetics (PK), and Quantitative Whole-Body Autoradiography (QWBA) studies.
# Samples were collected on days 0 through 10. […] The weights of all samples (except blood and plasma) were recorded and then stored at −70°C for later analysis. […]
# Radioactivity in diluted formulations, plasma, and urine, was quantitated by mixing with a liquid scintillator, Ultima Gold scintillation cocktail (5 mL, PerkinElmer). Samples were analyzed by LSC for total radioactivity content. […] The resulting 14CO2 liberated during combustion was trapped in CarboSorb® and Perma-Fluor® scintillation cocktail was added automatically to the samples before total radioactivity measurement by LSC.
# All LSC analyses were performed using a liquid scintillation analyzer (Perkin Elmer Model 2800TR or Model 2900TR). […] Data were corrected to the background by subtracting the dpm value measured from the analysis of blank samples (cocktail only).
# [5] = mouse, in vivo; remark: listed apart in the source
# Protocol: Female BALB/c athymic (nu+/nu+) mice (n = 48) were generated by Taconic (Germantown, NY). Mice (18–22 g) were acclimated for at least 3 days before subcutaneous implantation of 1 × 10^7 HT-29 colorectal carcinoma (ATCC number HTB38) cells in 100 μL 50:50 matrigel: PBS. Tumors were allowed to grow to 200–500 mm^3 sizes before initiating the study. Each animal was assigned a permanent identification number, and identified with a tail mark before being placed on the study. Food and water were provided ad libitum. Animal rooms were controlled to maintain a temperature of 68°F–79°F, and 20%–70% relative humidity, with a 12 h light/12 h dark cycle. Observations were recorded for all animals pre-dose and at least once daily post-dose. Mice were randomized into 3 groups and housed (n = 3 per cage) in metabolism cages (Group 1, n = 9) or shoebox cages (Group 2, n = 29 and Group 3, n = 10). […] Urine, feces, cage residue, blood/plasma, tissue samples, and carcasses were collected from different groups for Mass Balance (MB), Metabolite Identification (MET-ID), Pharmacokinetics (PK), and Quantitative Whole-Body Autoradiography (QWBA) studies.
# Samples were collected on days 0 through 10. […] Blood samples were collected via cardiac puncture (Group 2), into EDTA-containing tubes at 0 (pre-dose), 0.5, 2, 8, 24, 48, 72, 120,168, 240, and 336 h after the dose, and plasma samples were harvested on wet ice for PK analysis. […] The weights of all samples (except blood and plasma) were recorded and then stored at −70°C for later analysis.
# Radioactivity in diluted formulations, plasma, and urine, was quantitated by mixing with a liquid scintillator, Ultima Gold scintillation cocktail (5 mL, PerkinElmer). Samples were analyzed by LSC for total radioactivity content.
# Nominal times were used for pharmacokinetic calculations. Phoenix® WinNonlin®, (version 6.3, Pharsight Corporation, Mountain View, CA, United States) noncompartmental pharmacokinetic analysis was used to determine PK parameters [Maximal concentration (Cmax), Time of maximal concentration (Tmax), Terminal half-life (t1/2), area under the curve to infinity observed (AUCinf obs [µg equiv·h/g]), and area under the curve all observed points (AUCall [µg equiv·h/g])]. The acceptance criteria for the terminal half-life (t1/2) estimation used regression of at least three time points. […] Plasma concentrations are expressed as µg equivalents (equiv)/g (assume 1 mL = 1 g).
# HT-29 xenograft = tested on: HT-29 xenograft; design: method as in Lin et al., 2017; details: 200 or 400 mg/kg weekly (QW) or three times a week (TIW); ref Lin et al., 2017; cited from earlier work
# [6] = in vivo; cited from earlier work
compound,measurement,setting,value
CS(=O)(=O)Nc1ccc(N)cc1Oc1ccccc1 [H-Nim],half-life,[1],< 5 min
same,serum concentration at any time point greater than 5 min,[1]; detection limit 0.1 μg/mL,not detectable
same,serum concentration,[1]; 5 min,142 ng/mL
same,free Nim or H-Nim in the biological samples evaluated,[2],No free Nim or H-Nim are determined
CC(=O)NC1C(O)OC(CO)C(O)C1OC1OC(C(=O)Nc2ccc(NS(C)(=O)=O)c(Oc3ccccc3)c2)C(OC2OC(CO)C(O)C(OC3OC(C(=O)O)C(O)C(O)C3O)C2NC(C)=O)C(O)C1O (stereo not drawn) [M1037],metabolite in liver and tumor extracts,[2]; 240 h post-dose,dominant metabolite
same,"excretion by component, Liver + Tumor, percent of dose","[2]; Group 1, 200 mg/kg IV",4.40%
same,"excretion by component, Total, percent of dose","[2]; Group 1, 200 mg/kg IV",4.4%
"CS(=O)(=O)Nc1ccc([N+](=O)[O-])cc1Oc1ccccc1 [Nimesulide, reference compound]",free Nim or H-Nim in the biological samples evaluated,[2],No free Nim or H-Nim are determined
"N-(4-Amino-2-phenoxyphenyl) methanesulfonamide-graft-poly (β-D-(1, 3) glucuronic acid-β-D-(1, 4)-N-acetylglucosamine) conjugate [CA102N]","lowest relative tissue concentrations: white adipose, brain, spinal cord, bone tissue, eye lens, mammary gland region, skeletal muscle",[3]; 200 mg/kg IV,< 60 μg equiv/g
same,half-life of release of CA102N and its metabolites from tumor sites,"[3]; mouse, in vivo",74.2 h
same,"tissue-to-blood ratio, Blood (cardiac)","[3]; mouse, in vivo, iv, 200 mg/kg",1.00
same,"total radioactivity, adrenal Gland","[3]; mouse, in vivo, iv, 200 mg/kg",429.979 μg equiv/g
same,"total radioactivity, thyroid","[3]; mouse, in vivo, iv, 200 mg/kg",469.62 μg equiv/g
same,"cage rinses, wash, and wipe combined, percent of dose",[4],20%
same,"radioactivity elimination through urine, average percent of dose (abstract)",[4],77%
same,total dose eliminated within the first 24 h,[4],Around 60%
same,systemic plasma clearance (CL),[5],0.2 mL/min/kg
same,volume of distribution at steady state (Vss),[5],0.1 L/kg
same,AUC 0-inf_obs,"[5]; iv, 200 mg/kg",18332.4 μg equiv/ml*h
same,AUC 0-t,"[5]; iv, 200 mg/kg",18329.2 μg equiv/ml*h
same,AUC 0-t/0-inf_obs,"[5]; iv, 200 mg/kg",0.99
same,AUClast,"[5]; iv, 200 mg/kg","18,332.4 μg equiv/ml*h"
same,AUMC 0-inf_obs,"[5]; iv, 200 mg/kg",161062.0 μg equiv/ml*h^2
same,C0,"[5]; iv, 200 mg/kg",1985.6 μg equiv/ml
same,Cl_obs,"[5]; iv, 200 mg/kg",0.01 (mg)/(μg equiv/ml)/h
same,Clast_obs/Cmax,"[5]; iv, 200 mg/kg",5.5E-05
same,Lambda_z,"[5]; iv, 200 mg/kg",0.03 h⁻¹
same,MRT 0-inf_obs,"[5]; iv, 200 mg/kg",8.7 h
same,Vss_obs,"[5]; iv, 200 mg/kg",0.09 (mg)/(μg/mL)
same,Vz_obs,"[5]; iv, 200 mg/kg",0.3 (mg)/(μg equiv/ml)
same,mean plasma radioactivity,"[5]; iv, 200 mg/kg",1.073 µg equivalents/mL
same,tumor burden compared to vehicle-treated controls,HT-29 xenograft,significant reduction in tumor burden
same,hepatotoxicity,[6],absence of hepatotoxicity
CC(=O)NC1C(O)OC(CO)C(O)C1OC1OC(C(=O)Nc2ccc(NS(C)(=O)=O)c(Oc3ccccc3)c2)C(O)C(O)C1O (stereo not drawn) [M1],"excretion by component, Feces, percent of dose","[2]; Group 1, 200 mg/kg IV",13.20%
same,"excretion by component, Total, percent of dose","[2]; Group 1, 200 mg/kg IV",13.2%
same,metabolite in fecal extracts,[2]; pooled 0 to 120 h,primary metabolite
